# Measurements: IntAct's records for PubMed 27995898
# B1: S-adenosylhomocysteine hydrolase-like protein 1 (Homo sapiens), O43865 (parent)
# chain: MSMPDAMPLPGVGEELKQAKEIEDAEKYSFMATVTKAPKKQIQFADDMQEFTKFPTKTGRRSLSRSISQSSTDSYSSAASYTDSSDDEVSPREKQQTNSKGSSNFCVKNIKQAEFGRREIEIAEQDMSALISLRKRAQGEKPLAGAKIVGCTHITAQTAVLIETLCALGAQCRWSACNIYSTQNEVAAALAEAGVAVFAWKGESEDDFWWCIDRCVNMDGWQANMILDDGGDLTHWVYKKYPNVFKKIRGIVEESVTGVHRLYQLSKAGKLCVPAMNVNDSVTKQKFDNLYCCRESILDGLKRTTDVMFGGKQVVVCGYGEVGKGCCAALKALGAIVYITEIDPICALQACMDGFRVVKLNEVIRQVDVVITCTGNKNVVTREHLDRMKNSCIVCNMGHSNTEIDVTSLRTPELTWERVRSQVDHVIWPDGKRVVLLAEGRLLNLSCSTVPTFVLSITATTQALALIELYNAPEGRYKQDVYLLPKKMDEYVASLHLPSFDAHLTELTDDQAKYLGLNKNGPFKPNYYRY
# partner: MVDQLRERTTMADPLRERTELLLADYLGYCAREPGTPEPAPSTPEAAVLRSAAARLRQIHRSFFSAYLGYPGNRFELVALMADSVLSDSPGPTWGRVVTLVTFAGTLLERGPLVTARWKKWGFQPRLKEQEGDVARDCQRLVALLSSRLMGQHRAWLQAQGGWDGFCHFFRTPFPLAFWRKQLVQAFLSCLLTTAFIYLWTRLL
# Variants of: B1
# Conditions: with BCL2L10, Q9HD36
row,Variant,effect of a mutation on the interaction
1,S68A,with no effect
